Measurements as given in patent publication US20120088237.
Residue numbers refer to the chain shown, from its start.

How the values were obtained:
[1] = tested on: T1, BstNI (Bacillus stearothermophilus); experiment: cleavage_in_vitro; details: 5mC at inner (second) C of CCWGG (dcm); NEB1 and NEB4 0.1; NEB2 0.5; NEB3 2; 60 C 1 h, crude lysate
T1 sequence: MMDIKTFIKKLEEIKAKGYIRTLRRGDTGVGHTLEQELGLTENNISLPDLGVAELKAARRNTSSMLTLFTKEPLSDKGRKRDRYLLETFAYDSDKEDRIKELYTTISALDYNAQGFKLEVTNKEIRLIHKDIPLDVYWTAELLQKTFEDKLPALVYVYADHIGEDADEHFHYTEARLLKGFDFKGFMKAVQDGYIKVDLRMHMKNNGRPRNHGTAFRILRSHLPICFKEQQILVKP

[2] = tested on: T2, BstNI R200C R200C (Bacillus stearothermophilus); experiment: cleavage_in_vitro; details: 5mC at inner (second) C of CCWGG (dcm); NEB1, NEB2 and NEB4 each 100; NEB3 10; 60 C 1 h, crude lysate
T2 sequence: T1 sequence with R200C

Substance: CCWGG (double strand) [dcm+ plasmid pBC4 (C5mCWGG)]
- relative cleavage in vitro (fold (dcm+/dcm- cleavage)) [1]: 0.1
- relative cleavage in vitro (fold (dcm+/dcm- cleavage)) [2]: 100
